Source: PMC10814857, “Functional Classification and Interaction Selectivity Landscape of the Human SH3 Domain Superfamily” (Cells, 2024)

Key:
[1] = molecular target: P7, fluorescein-labelled proline-rich peptide from the SOS1 proline-rich domain (human); test: fluorescence polarisation; 0.2 µM fluorescein-labelled peptide, SH3 domain titrated 0 to 200 µM; 30 mM Tris/HCl pH 7.5, 5 mM MgCl2, 3 mM DTT, 25 °C; quadratic ligand binding equation
[2] = molecular target: SOS1 P7 (Homo sapiens), Q07889; test: fluorescence polarization

B1: ARHGAP12 SH3 domain, GST cleaved (domain or fragment)
chain: PGQVYIEVEYDYEYEAKDRKIVIKQGERYILVKKTNDDWWQVKPDENSKAFYVPAQYVKEVTR
Question: Which Kd [1] does the source give for B1 here?
Answer: 200 nM

B2: ARHGAP12 SH3, Q8IWW6 (protein)
chain: KIIPGQVYIEVEYDYEYEAKDRKIVIKQGERYILVKKTNDDWWQVKPDENSKAFYVPAQYVKEVTRKAL
Question: Which Kd [2] does the source give for B2 here?
Answer: < 500 nM
